This data set concerns the target nucleolin (NCL) (Homo sapiens, UniProt P19338 1-710). As to the kind of experiment: SPR; 70 mM KCl; SPR (Biacore X-100, CM5): 10 mM HEPES, 70 mM KCl, pH 7.4, 25 C; analyte 5-500 uM; two-state reaction fit. Particulars: protein: commercial. A general note: SPR reads the build-up and loss of mass on a sensor chip optically.

The term Kd denotes the equilibrium constant for the complex coming apart. High values mean weaker binding, low ones tighter binding.

Chain of nucleolin (NCL) (P19338 whole entry): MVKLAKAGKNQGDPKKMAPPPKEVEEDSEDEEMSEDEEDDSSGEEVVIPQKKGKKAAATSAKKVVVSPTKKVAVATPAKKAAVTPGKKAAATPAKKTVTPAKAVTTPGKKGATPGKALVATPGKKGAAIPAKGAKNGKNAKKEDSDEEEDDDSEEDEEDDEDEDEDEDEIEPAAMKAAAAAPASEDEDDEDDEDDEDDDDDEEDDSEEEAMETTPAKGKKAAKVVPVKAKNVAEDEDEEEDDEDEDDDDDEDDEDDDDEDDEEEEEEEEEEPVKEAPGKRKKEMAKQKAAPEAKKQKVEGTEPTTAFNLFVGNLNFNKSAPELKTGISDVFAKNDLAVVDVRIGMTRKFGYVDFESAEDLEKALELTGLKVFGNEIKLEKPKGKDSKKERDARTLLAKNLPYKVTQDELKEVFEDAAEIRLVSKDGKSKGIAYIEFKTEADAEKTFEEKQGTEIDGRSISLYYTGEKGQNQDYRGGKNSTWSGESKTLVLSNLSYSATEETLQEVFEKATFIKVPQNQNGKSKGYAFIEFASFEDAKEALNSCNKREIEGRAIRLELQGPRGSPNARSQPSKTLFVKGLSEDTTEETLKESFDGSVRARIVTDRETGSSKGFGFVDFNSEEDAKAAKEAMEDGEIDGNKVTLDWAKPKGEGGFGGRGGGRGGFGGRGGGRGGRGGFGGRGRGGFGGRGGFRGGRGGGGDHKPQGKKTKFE

B1: TBAG4 (structured_DNA)
DNA: GGGGTTGGGGTGTGGGGTTGGGG
B1: the equilibrium dissociation constant (Kd) (antiparallel G4, two extra G-tetrads, intramolecular) is 13.5 µM.

B2: TBA (structured_DNA)
DNA: GGTTGGTGTGGTTGG
Take B2: binding (antiparallel G4, intramolecular) was put at a Kd of 62.5 µM.

B3: TBAG3 (structured_DNA)
DNA: GGGTTGGGTGTGGGTTGGG
Regarding B3, the Kd (G4, one extra G-tetrad, intramolecular) was found to be 1290 µM. That is a millimolar value.

These data come from paper PMC9736779, “Properties and Potential Antiproliferative Activity of Thrombin-Binding Aptamer (TBA) Derivatives with One or Two Additional G-Tetrads”.
